Experimental data from the Human Domainome abundance scans (Beltran et al. 2025).

B1: Tripartite motif-containing protein 49C, residues 87 to 133; numbered along this chain, P0CI26 (parent)
chain: SSEEQMCGTHRETKKIFCEVDRSLLCLLCSSSQEHRYHRHRPIEWAA

Variants of: B1
Assay: abundance fitness (aPCA) (normalised: wild type 0, dead -1); higher = more abundant; growth selection in yeast, the domain comes from the species named
Details: Homo sapiens

Abundance fitness, by site and new letter:
P42: Q -0.081, F -0.289, W -0.671, Y -0.26
V20: E 0.101, A 0.141, D 0.164, I -0.144, R -0.026, N -0.014, Q 0.052
K14: E -0.173, G -0.518, S -0.708, V -0.33, A -0.029, M -0.199, D -0.303, W -0.431, N -0.419, Q -0.328
D21: K 0.022, F -0.562, W -0.198, N -0.01, M -0.604, C 0.149
A46: S 0.056, G 0.056, E -0.076, F -0.184, R -0.249, V -0.203
Q33: E 0.081, I 0.694, L -0.012, V 0.01, H -0.197, Y 0.159
R11: Y -1.07, S -0.185, M -0.48, W -0.36, I -0.398, F -0.613, K 0.073, T -0.135, V -0.502
S2: E -0.222, K -0.114, Y -0.647, A -0.21, F 0.205
E19: H -0.944, Q -0.368, D -0.297, C -0.255, Y -0.737, N -0.433
H40: W -0.608, S -0.298, T -0.849, V -0.439, C -0.623, N -1.27, D -0.083, Y -0.888
Q5: V -0.009, L -0.044, P -0.251, N -0.337, G -0.244, S 0.114, Y -0.002, C -0.643
Y37: C -0.032, Q 0.155, T 0.051, I -0.386, P -0.273, W -0.218, N 0.226
H10: R -0.728, M -1.06, W -0.976, K -0.714, C -0.523, Y -0.855, Q -0.757
T13: F -0.232, V -0.033, M 0.242, Q 0.148, W -0.436, S -0.081, H 0.006, C -0.22, K -0.224, E -0.028, I 0.046, N -0.431
C29: F -1.08, E -0.63, G -0.716, P -0.715, T -0.861
G8: A -0.005, Q -0.104, F 0.229, K -0.02, H -0.468, L -0.009, W -0.199, D -0.022, N -0.159, C -0.017
L28: S 0.12, T 0.204, E 0.189, F -0.422, N 0.075, V 0.186, Q 0.274, D -0.17, H -0.246
R22: A -0.267, K 0.22, S -0.132, L -0.327, Q 0.117, G 0.174, V -0.575, Y -0.47, N 0.019
S1: F 0.294, Y -0.277, C -0.79, L -0.156
L24: Y -0.085, Q -0.159, P -0.217, E -0.106, D -0.294, R -0.213, N -0.212, A -0.044
F17: K -0.274, R -0.356, M -0.062, I -0.464, L -0.081, Q -0.653, N -0.675, G -0.664, V -0.328
C18: E -0.333, Q -0.731, A -0.907, S -0.327, N -0.286, F -0.802, I -0.783, Y -0.801
R39: I 0.162, F -0.356, Y -0.328, Q 0.045, D 0.257, T 0.02, N 0.363, L -0.172, C -0.375, G -0.253, H -0.131, V -0.092
K15: I -0.327, S -0.147, C -0.382, P -0.79, F -0.32, W -0.668, E 0.037, D -0.571, A -0.337
C7: H -0.429, P -0.598, K -1.08, F -0.957, Q -0.832, M -0.718, D -0.589
M6: A -0.575, Q -0.273, D -0.875, V -0.21, N -0.958, K -0.581, Y -0.344
H38: K -0.607, V -0.851, D -0.521, A -0.573, S -0.691, T -0.599, E -0.33, F -0.271, M -0.717, I -0.892
W45: Q 0.224, A 0.282, H 0.361, I 0.12, R 0.111, Y 0.256, L 0.122, G 0.236
S23: V -0.132, A -0.035, N -0.835, H -0.277, F -0.944, K -0.035
H35: R -0.799, F -0.75, W -0.846, P -0.676, K -0.929
E34: I -0.818, K -0.246, V -0.492, F -0.748, N -0.417, C -0.514
L27: P 0.132, N 0.271, M 0.231, T 0.106, A 0.111, Q 0.135
A47: L -0.493, V 0.142, G -0.078
S32: Y -0.224, N -0.134, M -0.141, F -0.465, L -0.313, I -0.947
R41: M -0.39, F -0.29, S 0.011, G -0.34, A -0.084, P -0.364
E4: H -0.351, L -0.278, F -0.59, S -0.244, I -0.142, Q -0.726, D -0.035, G -0.68
E44: V -0.603, L -0.52, H -0.738, K -0.298
R36: F -0.607, M -0.301, T 0.001
S30: D -0.288, G -0.319, M -0.176, Y -0.407, W -0.615, I -0.435, T -0.19, N -0.555, K -0.72
E3: G -0.147, S -0.15, W -0.156, T -0.487, M -0.275, K -0.295, I -0.492
E12: K 0.265, Y -0.092, N -0.797, Q 0.066, G -0.01, L 0, C -0.01
L25: C -0.208, V 0.103, E -0.586, H -0.081, F -0.581, W -0.962, K -0.59, S -0.394
S31: P -0.544, F -0.313, A -0.048, Y -0.244, D -0.251, T -0.328
C26: M -1.08, K -0.894, A -0.891, F -0.901, G -0.734, Y -1.15
T9: G -0.556, L 0.151, V 0.047, H -0.153, N -0.417, I -0.074, M -0.265, F -0.469
I16: R -0.497, N -0.677, W -0.28, L -0.372, Q -0.468, E -0.444, M -0.107
I43: V 0.023, A 0.405, W -0.395, G -0.215, R -0.385, P -0.524, Y 0.335
